Tests used:
[1] = GDP-mannose-3,5-epimerase candidate screening (GDP-D-mannose to GDP-L-galactose); assay type: biochemical; conditions: enzymatic screening of candidates
Description: The reaction conditions were: 2 mM GDP-D-mannose, 1 mM NAD^+, 50 mM Tris-HCl, pH 8.0 and with or without 0.33 mg/mL At GME. The reactions were incubated at room temperature for 16 hours, quenched by heating at 99° C. for 10 mins, and analyzed using HPLC.

[2] = In vitro enzyme cascade converting L-galactose to 2′-FL; assay type: biochemical; conditions: 10 mM L-galactose, 0.2 g/L FutC, quenched at 3 hours and 22 hours
Description: The reaction conditions were: 50 mM Tris pH 7.5, 10 mM L-galactose, 2 mM ATP, 2 mM GTP, 25 mM acetyl phosphate, 5 mM magnesium chloride, 5 mM potassium chloride, 0.15 mM NADP^+, 0.5 mM NADPH, 40 mM lactose, 0.23 g/L […] (FKP, SEQ ID NO: 1), 0.06 g/L an acetate kinase for the ATP recycling system (Gs Ack, SEQ ID NO: 65), 0.3 g/L At GMD (SEQ ID NO: 79), 0.75 g/L WcaG (SEQ ID NO: 7) and 0.2 g/L ASR 12 (SEQ ID NO: 109). The reactions were quenched by heating at 99° C. […] and analyzed using the 2′-FL LC-MS method.

[3] = expressed in E. coli
Source text: One of the major limitations for 2′-FL production is FutC activity. After screening various FutC candidates as described in Example 5, the inventors sought to identify mutant FutC candidates with even higher activity and improved solubility using bioinformatics. Based on ancestral sequence reconstruction (ASR) analysis, a series of ASR mutants were designed (Table 5) and screened for their solubility and activity.
(§1) The enzymes listed in Table 5 were expressed in E. coli, and the clarified lysate was normalized based on the OD600 standard curve and used to screen for activity. To the clarified lysate was added 50 mM Tris pH 7.5, 1 mM GDP-L-fucose, and 80 mM lactose, and the reactions were quenched by heating at 99° C. for 10 minutes, and analyzed using the 2′-FL HPLC method.

[4] = Activity comparison of purified FutC enzymes; assay type: biochemical; conditions: 2 mM GDP-L-fucose, 40 mM lactose, 0.5 mg/mL FutC
Description: An assay was performed to compare the activity of the ASR11 and ASR12 enzymes to the activity of the parent construct, FutC #5 (SEQ ID NO: 29) and Helicobacter pylori FutC (HpFutC, SEQ ID NO: 61), an enzyme commonly used for 2′-FL production. Specifically, the assay conditions were: 2 mM GDP-L-fucose, 40 mM lactose, 50 mM Tris pH 7.5, and 0.5 mg/mL FutC.

[5] = ASR library activity screen in clarified E. coli lysate; assay type: biochemical; conditions: 1 mM GDP-L-fucose, 80 mM lactose
Description: as §1

[6] = FutC candidate activity in vitro using the de novo synthesis pathway (2′-FL by HPLC); assay type: biochemical; conditions: 0.2 mg/mL fucosyltransferase, 1 mM GDP-mannose, 80 mM lactose, room temperature, 16 hours
Description: The final step in the novel path to 2′-FL requires an α-1,2-fucosyltransferase. Various FutC candidates were screened for soluble expression in E. coli and fucosyltransferase activity. The candidate enzymes show different solubilities and enzymatic activity for 2′-FL synthesis. For the candidates that have highly soluble expression, their activity was tested in vitro using the de novo synthesis pathway. The reaction conditions were: 50 mM Tris-HCl pH 8.0, 2 mM NADPH, 0.1 mM NADP^+, 1 mM GDP-mannose, 80 mM lactose, 0.9 mg/mL Ec Gmd (SEQ 11), 0.2 mg/mL Ec WcaG (SEQ ID NO: 7) and 0.2 mg/mL of the fucosyltransferase candidates. The reactions were incubated at room temperature for 16 hours. The reactions were quenched by heating at 99° C. for 10 minutes, and then analyzed by HPLC.

[7] = Dehydratase screening for GDP-L-fucose synthesis from GDP-L-galactose; assay type: biochemical
Description: Four enzymes were screened: At Gmd (SEQ ID NO: 5), Hs Gmd (SEQ ID NO: 9), Ec Gmd (SEQ ID NO: 11) and Yp DmhA (SEQ ID NO: 13), while Ec WcaG (SEQ ID NO: 7) is known to be a reductase. […] The reactions were incubated for 16 hours at 37° C., and then quenched by heating at 99° C. for 10 minutes. Samples were analyzed by both HPLC and LC-MS methods.

[8] = GDP-L-fucose inhibition assay of GMD enzymes (GDP-4-keto-6-deoxymannose detection); assay type: biochemical; conditions: 350 μM GDP-L-fucose; 1 mM GDP-mannose, 0.5 mg/mL GMD
Description: To test for inhibition, the mutants were expressed and purified as described in Example 7, and assayed at a range of GDP-L-fucose concentrations. The assay conditions were as follows: 50 mM Tris pH 7.5, 1 mM GDP-mannose, 0.5 mM NADP^+, 0.5 mg/mL dehydratase (GMD) enzyme, and 0 μM, 70 μM or 350 μM GDP-L-fucose. The reactions were quenched at 99° C. for 10 minutes, and the enzymes' respective activities were analyzed using the nucleotide sugar LC-MS method by GDP-4-keto-6-deoxymannose detection.

[9] = FKP activity towards L-galactose (GDP-L-galactose production); assay type: biochemical
Description: FKP naturally catalyzes the conversion of L-fucose into GDP-L-fucose. It has been reported that FKP also could generate GDP-L-galactose from L-galactose (Ohashi et al. 2017). FKP was cloned into pET21, expressed and purified as described in Example 1. The activity of FKP towards L-galactose was assayed under the following conditions: 2 mM L-galactose, 2 mM ATP, 2 mM GTP, 4 mM MgCl2, 50 mM Tris-HCl, pH 7.5 and with or without 0.25 g/L FKP. The samples were incubated at room temperature overnight, and quenched by heating at 99° C. for 10 minutes, and analyzed using LC-MS.
Further work was conducted to optimize the FKP reaction with L-galactose as the substrate, by varying reaction temperature, substrate concentrations, and adding an ATP/GTP regeneration system. The reaction conditions were: 50 mM Tris-HCl pH 7.5, 5 mM MgCl2, 5 mM L-galactose, 2 mM ATP, 2 mM GTP, 10 mM PEP, 1 U pyruvate kinase, and with or without 0.8 mg/mL FKP. The reaction was incubated at 37° C. for 44 hours. The reaction was quenched by heating at 99° C. for 10 minutes. The samples were analyzed using HPLC (FIG. 5).

With “At GME: GDP-mannose-3,5-epimerase from Arabidopsis thaliana, SEQ ID NO: 3” the “GDP-mannose-3,5-epimerase activity” value [1] was “higher activity than Os GME”.

B1: ASR 12: FutC mutant from ancestral sequence reconstruction, SEQ ID NO: 109 (protein)
chain: MIIIRMSGGLGNQMFQYALYRKLKSMGKEVKIDDITGYEDDNQRSIMLDVFGIDYDKATKEEITKLTDSSMDFLSRIRRKLFGRKSKEYQEEDFNFDPQVLEMDDAYLEGYFQSEKYFQDVREQLRKEFTFRKNSVPELSEQTKELRKQIENSNSVSIHIRRGDYLENSHAEIYGGICTDDYYKKAIEYMKEKFPDAKFYIFSNDIEWAKQHFKGENFVIVDASEENTGYADMYLMSKCKHHIIANSSFSWWGAWLNDNPEKIVIAPSKWLNNKECKDIYTDRMIKIDAKGEVRSEDYGVRTNSTVK
modifications: ASR12
With B1 the “2′-FL production compared to FutC #5 and Hp FutC” value [2] was “significantly higher”, the “solubility compared to the rest of the ASR library” value [3] was “improved” and the “FutC activity compared to Hp FutC and parent FutC 5” value [4] was “outperformed Hp FutC as well as the parent construct”. For the same molecule, the “activity compared to the rest of the ASR library” value [5] was “improved”.

B2: FutC13: α-1,2-fucosyltransferase candidate from Candidatus Brocadia sapporoensis, SEQ ID NO: 45 (protein)
chain: MQLKRWPQLKPTDAAVFGSGKQTIMIIVKLMGGLGNQMFQYAAGRRLAEKLGVKLKLDIEMFKDNTLRKYELGAFNIQECFAAVEEIERLTVVKRGIVEKALDRVFKRPIRRPGGYVAEKYFVFDPSILQLPDQVYLDGYWQSEKYFAEIETIIREEFTIKYPQTDKNKVLSDSIKSGNSVTVHVRRGDYVNNPETNSLHGVCGIDYYQRCIDFIITKIANPHFFFFSDDPEWVKNNLKIKYESTVVEHNGAEKCYEDLRLLSQGKYHIIANSTFSWWGAWLNKNPEKMVVAPEKWFKKEDVNTKGFIPEDWIRL
modifications: Candidatus Brocadia sapporoensis
In the case of B2, the “α-1,2-fucosyltransferase activity for 2′-FL production” value [6] is reported as “have α-1,2-fucosyltransferase activity for 2′-FL production”.

B3: At WT: GDP-mannose-4,6-dehydratase from Arabidopsis thaliana, wild type, SEQ ID NO: 5 (protein, listed as Arabidopsis thaliana)
chain: MASENNGSRSDSESITAPKADSTVVEPRKIALITGITGQDGSYLTEFLLGKGYEVHGLIRRSSNFNTQRINHIYIDPHNVNKALMKLHYADLTDASSLRRWIDVIKPDEVYNLAAQSHVAVSFEIPDYTADVVATGALRLLEAVRSHTIDSGRTVKYYQAGSSEMFGSTPPPQSETTPFHPRSPYAASKCAAHWYTVNYREAYGLFACNGILFNHESPRRGENFVTRKITRALGRIKVGLQTKLFLGNLQASRDWGFAGDYVEAMWLMLQQEKPDDYVVATEEGHTVEEFLDVSFGYLGLNWKDYVEIDQRYFRPAEVDNLQGDASKAKEVLGWKPQVGFEKLVKMMVDEDLELAKREKVLVDAGYMDAKQQP
In the case of B3, the “dehydratase activity towards GDP-L-galactose” value ([7]; 5 mM GDP-L-Gal, 2.4 g/L At Gmd, 3.2 g/L Ec WcaG, 16 hours, 37° C.) is reported as “has dehydratase activity towards GDP-L-galactose”, the initial dehydratase activity ([7]; among four potential dehydratases screened) is reported as “highest initial activity” and the decrease in activity [8] is reported as 95%.

B4: FutC 18: α-1,2-fucosyltransferase candidate from Rhizobiales bacterium, SEQ ID NO: 55 (protein, listed as Rhizobiales bacterium)
chain: MIVTRIVGGLGNQMFQYAVGRALSAKTGQEFKLDLSEMDRYKVHALQLDQFNIKGVRAGRHEIPFRPRKSFFGKILTALKNRNRIPQVFETTPSFDPSVLQRKGSCYLSGYWQSEKYFSDCSELIRADFSLKGPMSDERQAVLSQIRDAEAPVSVHVRRGDYVTNTTANSIHGTCEPEWYRQAMRKISDRTGDPTFFVFSDDPMWARSNLPTYEKMVFVEPRADGKDAEDMHLMSSCQSHIIANSTFSWWGAWLNPRQDKRVIAPARWFRAEDRDSTDLVPAQWERL
For B4, the “α-1,2-fucosyltransferase activity for 2′-FL production” value [6] was “have α-1,2-fucosyltransferase activity for 2′-FL production”.

B5: FKP: fucokinase/guanylyltransferase from Bacteroides fragilis, SEQ ID NO: 1 (protein, listed as Bacteroides fragilis)
chain: MQKLLSLPPNLVQSFHELERVNRTDWFCTSDPVGKKLGSGGGTSWLLEECYNEYSDGATFGEWLEKEKRILLHAGGQSRRLPGYAPSGKILTPVPVFRWERGQHLGQNLLSLQLPLYEKIMSLAPDKLHTLIASGDVYIRSEKPLQSIPEADVVCYGLWVDPSLATHHGVFASDRKHPEQLDFMLQKPSLAELESLSKTHLFLMDIGIWLLSDRAVEILMKRSHKESSEELKYYDLYSDFGLALGTHPRIEDEEVNTLSVAILPLPGGEFYHYGTSKELISSTLSVQNKVYDQRRIMHRKVKPNPAMFVQNAVVRIPLCAENADLWIENSHIGPKWKIASRHIITGVPENDWSLAVPAGVCVDVVPMGDKGFVARPYGLDDVFKGDLRDSKTTLTGIPFGEWMSKRGLSYTDLKGRTDDLQAASVFPMVNSVEELGLVLRWMLSEPELEEGKNIWLRSERFSADEISAGANLKRLYAQREEFRKGNWQALAVNHEKSVFYQLDLADAAEDFVRLGLDMPELLPEDALQMSRIHNRMLRARILKLDGKDYRPEEQAAFDLLRDGLLDGISNRKSTPKLDVYSDQIVWGRSPVRIDMAGGWTDTPPYSLYSGGNVVNLAIELNGQPPLQVYVKPCKDFHIVLRSIDMGAMEIVSTFDELQDYKKIGSPFSIPKAALSLAGFAPAFSAVSYASLEEQLKDFGAGIEVTLLAAIPAGSGLGTSSILASTVLGAINDFCGLAWDKNEICQRTLVLEQLLTTGGGWQDQYGGVLQGVKLLQTEAGFAQSPLVRWLPDHLFTHPEYKDCHLLYYTGITRTAKGILAEIVSSMFLNSSLHLNLLSEMKAHALDMNEAIQRGSFVEFGRLVGKTWEQNKALDSGTNPPAVEAIIDLIKDYTLGYKLPGAGGGGYLYMVAKDPQAAVRIRKILTENAPNPRARFVEMTLSDKGFQVSRS
In the case of B5, the “conversion of L-galactose to GDP-L-galactose” value ([9]; 2 mM L-galactose, 0.25 g/L FKP, room temperature overnight, LC-MS) is reported as “catalyzes the conversion of L-galactose to GDP-L-galactose” and the “final titer of GDP-L-galactose” value ([9]; 5 mM L-galactose, 0.8 mg/mL FKP, PEP/pyruvate kinase regeneration, 37° C., 44 hours) is reported as 2.5 g/L.

From US20240093255A1, “BIOSYNTHETIC PRODUCTION OF 2-FUCOSYLLACTOSE” (Conagen Inc., priority 2020, published 2024)
